Laboratory results from patent US5578310A, “Topical bioadhesive ointment compositions and their use in wound healing” (Berlex Laboratories Inc., priority 1994, dated 1996).

Key:
[1] = In vivo uptake and tissue distribution of 125I-TGFα from TJ-TGFα formulation on wounded cheek pouch; design: species or system Golden Syrian hamsters; settings: for Distribution of 125I-TGFα in the Tissues: Small Intestine / Distribution of 125I-TGFα in the Tissues: Stomach / Distribution of 125I-TGFα in the Tissues: Submaxillary Gland / Distribution of 125I-TGFα in the Tissues: Thyroid / Distribution of 125I-TGFα in the Tissues: Tongue / Distribution of 125I-TGFα in the Tissues: Blood / Distribution of 125I-TGFα in the Tissues: Cecum / Distribution of 125I-TGFα in the Tissues: Colon / Distribution of 125I-TGFα in the Tissues: Esophagus / Distribution of 125I-TGFα in the Tissues: Kidney / Distribution of 125I-TGFα in the Tissues: Liver: cheek pouch wound; for Distribution of 125I-TGFα in the Tissues: Cheek Pouch: right-hand side cheek pouch (application site); for Distribution of 125I-TGFα in the Tissues: Skin: 25 cm^2 skin on back
Description: (§1) The TGFα-containing ointment composition of Example 2 (TJ-TGFα formulation) was subjected, both in vitro and in vivo, to evaluation to meet the therapeutical requirements for oral mucositis. The in vitro evaluation included TGFα release and extraction from the composition, autoclave sterilizability and the bioactivity and stability of TGFα in the composition. The in vivo evaluation included TGFα uptake and tissue distribution of absorbed TGFα from hamster's cheek pouch.
(§2) B. The in vivo uptake of TGFα from the TJ-TGFα formulation was determined in Golden Syrian hamsters, female, approximately 150 g using an ^125 I-TGFα formulation (specific activity-45 μci/μg), the hamster's cheek pouch having a mechanically created wound. A pharmacokinetic study of tissue distribution of TGFα absorbed by the hamsters was also conducted. The methods employed were as follows:
(§3) 1. Fast hamsters overnight.
(§4) 2. Anesthetize hamsters by I.M. injection of ketamine HCl.
(§5) 3. Create a 2 mm diameter wound on the right-hand side of hamster's cheek pouch by a biopsy punch.
(§6) 4. Following the removal of the debridement and blood clot, administer 20 μl TJ-TGFα formulation containing 26 μci 125I-TGFα onto the wound area by a Gilson Microman.
(§7) 5. Keep the hamsters in their cages and give no water or food during the course of 6 hours study.
(§8) 6. Select three hamsters at time 15 minutes, 30 minutes, 1 hour, 2 hours, 4 hours and 6 hours and select one hamster at 24 hours for TGFα uptake and tissue distribution study.
7. Punch a needle into the hamster's heart and withdrawn 1 ml blood by a 5 ml syringe.
(§9) 8. Sacrifice hamster by inhalation of an overdose of carbon dioxide vapor from dry ice in a closed chamber.
(§10) 9. Immediately after sacrificing, remove the liver, kidney, thyroid, submaxillary gland, esophagus, stomach, small intestine, cecum, colon, 25 cm^2 skin on back, tongue and right-hand side of cheek pouch.
(§11) 11. Count the CPM of ^125 I-TGFα that distributed in the hamster's tissue and GI contents.

[2] = In vivo distribution of 125I-TGFα in the GI contents from TJ-TGFα formulation on wounded cheek pouch; design: species or system Golden Syrian hamsters; settings: cheek pouch wound
Description: as §1, §2, §3, §4, §5, §6, §7, §8, §9, §10
10. Flush the contents of esophagus, stomach, small intestine and cecum with water and collect the contents separately into a test tube.
as §11

^125 I-TGFα: 125I-labelled TGFα (specific activity 45 μci/μg) administered in TJ-TGFα formulation onto the hamster cheek pouch wound
Distribution of 125I-TGFα in the Tissues: Small Intestine ([1]; 4 hrs.): 0.12%
Distribution of 125I-TGFα in the Tissues: Stomach ([1]; 4 hrs.): 0.74%
Distribution of 125I-TGFα in the Tissues: Submaxillary Gland ([1]; 4 hrs.): 0.42%
Distribution of 125I-TGFα in the Tissues: Thyroid ([1]; 4 hrs.): 0.39%
Distribution of 125I-TGFα in the Tissues: Tongue ([1]; 4 hrs.): 3.37%
Distribution of 125I-TGFα in the Tissues: Cheek Pouch ([1]; 4 hrs.): 74%
Distribution of 125I-TGFα in the Tissues: Skin ([1]; 6 hrs.): 0.13%
Distribution of 125I-TGFα in the Tissues: Blood ([1]; 6 hrs.): 0.13%
Distribution of 125I-TGFα in the Tissues: Cecum ([1]; 6 hrs.): 0.08%
Distribution of 125I-TGFα in the Tissues: Colon ([1]; 6 hrs.): 0.12%
Distribution of 125I-TGFα in the Tissues: Esophagus ([1]; 6 hrs.): 0.27%
Distribution of 125I-TGFα in the Tissues: Kidney ([1]; 6 hrs.): 0.27%
Distribution of 125I-TGFα in the Tissues: Liver ([1]; 6 hrs.): 0.24%
Distribution of 125I-TGFα in the Tissues: Small Intestine ([1]; 6 hrs.): 0.15%
Distribution of 125I-TGFα in the Tissues: Stomach ([1]; 6 hrs.): 1.06%
Distribution of 125I-TGFα in the Tissues: Submaxillary Gland ([1]; 6 hrs.): 0.77%
Distribution of 125I-TGFα in the Tissues: Thyroid ([1]; 6 hrs.): 0.88%
Distribution of 125I-TGFα in the Tissues: Tongue ([1]; 6 hrs.): 1.25%
Distribution of 125I-TGFα in the Tissues: Cheek Pouch ([1]; 6 hrs.): 84%
Distribution of 125I-TGFα in the Tissues: Skin ([1]; 24 hrs.): 0.13%
Distribution of 125I-TGFα in the Tissues: Blood ([1]; 24 hrs.): 0.22%
Distribution of 125I-TGFα in the Tissues: Cecum ([1]; 24 hrs.): 0.05%
Distribution of 125I-TGFα in the Tissues: Colon ([1]; 24 hrs.): 1.57%
Distribution of 125I-TGFα in the Tissues: Esophagus ([1]; 24 hrs.): 0.04%
Distribution of 125I-TGFα in the Tissues: Kidney ([1]; 24 hrs.): 0.24%
Distribution of 125I-TGFα in the Tissues: Liver ([1]; 24 hrs.): 0.59%
Distribution of 125I-TGFα in the Tissues: Small Intestine ([1]; 24 hrs.): 0.40%
Distribution of 125I-TGFα in the Tissues: Stomach ([1]; 24 hrs.): 1.23%
Distribution of 125I-TGFα in the Tissues: Submaxillary Gland ([1]; 24 hrs.): 0.77%
Distribution of 125I-TGFα in the Tissues: Thyroid ([1]; 24 hrs.): 2.84%
Distribution of 125I-TGFα in the Tissues: Tongue ([1]; 24 hrs.): 0.66%
Distribution of 125I-TGFα in the Tissues: Cheek Pouch ([1]; 24 hrs.): 21%
Distribution of 125I-TGFα in the GI Contents: Cecum ([2]; 15 min.): 0.003%
Distribution of 125I-TGFα in the GI Contents: Esophagus ([2]; 15 min.): 0.00005%
Distribution of 125I-TGFα in the GI Contents: Small Intestine ([2]; 15 min.): 0.003%
Distribution of 125I-TGFα in the GI Contents: Stomach ([2]; 15 min.): 0.03%
Distribution of 125I-TGFα in the GI Contents: Cecum ([2]; 0.5 hrs.): 0.01%
Distribution of 125I-TGFα in the GI Contents: Esophagus ([2]; 0.5 hrs.): 0.01%
Distribution of 125I-TGFα in the GI Contents: Small Intestine ([2]; 0.5 hrs.): 0.01%
Distribution of 125I-TGFα in the GI Contents: Stomach ([2]; 0.5 hrs.): 0.056%
Distribution of 125I-TGFα in the GI Contents: Cecum ([2]; 1 hr.): 0.02%
Distribution of 125I-TGFα in the GI Contents: Esophagus ([2]; 1 hr.): 0.002%
Distribution of 125I-TGFα in the GI Contents: Small Intestine ([2]; 1 hr.): 0.02%
Distribution of 125I-TGFα in the GI Contents: Stomach ([2]; 1 hr.): 0.20%
Distribution of 125I-TGFα in the GI Contents: Cecum ([2]; 2 hrs.): 0.02%
Distribution of 125I-TGFα in the GI Contents: Esophagus ([2]; 2 hrs.): 0.01%
Distribution of 125I-TGFα in the GI Contents: Small Intestine ([2]; 2 hrs.): 0.02%
Distribution of 125I-TGFα in the GI Contents: Stomach ([2]; 2 hrs.): 0.40%
Distribution of 125I-TGFα in the GI Contents: Cecum ([2]; 4 hrs.): 0.04%
Distribution of 125I-TGFα in the GI Contents: Esophagus ([2]; 4 hrs.): 0.37%
Distribution of 125I-TGFα in the GI Contents: Small Intestine ([2]; 4 hrs.): 0.06%
Distribution of 125I-TGFα in the GI Contents: Stomach ([2]; 4 hrs.): 4.1%
Distribution of 125I-TGFα in the GI Contents: Cecum ([2]; 6 hrs.): 0.05%
Distribution of 125I-TGFα in the GI Contents: Esophagus ([2]; 6 hrs.): 0.27%
Distribution of 125I-TGFα in the GI Contents: Small Intestine ([2]; 6 hrs.): 0.05%
Distribution of 125I-TGFα in the GI Contents: Stomach ([2]; 6 hrs.): 7.8%
Distribution of 125I-TGFα in the GI Contents: Cecum ([2]; 24 hrs.): 2.63%
Distribution of 125I-TGFα in the GI Contents: Esophagus ([2]; 24 hrs.): 0.01%
Distribution of 125I-TGFα in the GI Contents: Small Intestine ([2]; 24 hrs.): 0.52%
Distribution of 125I-TGFα in the GI Contents: Stomach ([2]; 24 hrs.): 5.5%
